Measurements taken from patent US20150204870A1.

target: thyroglobulin

Chain of SNA treated with PNGaseF (sugar chain-removed natural lectin) (Q41358 29-289): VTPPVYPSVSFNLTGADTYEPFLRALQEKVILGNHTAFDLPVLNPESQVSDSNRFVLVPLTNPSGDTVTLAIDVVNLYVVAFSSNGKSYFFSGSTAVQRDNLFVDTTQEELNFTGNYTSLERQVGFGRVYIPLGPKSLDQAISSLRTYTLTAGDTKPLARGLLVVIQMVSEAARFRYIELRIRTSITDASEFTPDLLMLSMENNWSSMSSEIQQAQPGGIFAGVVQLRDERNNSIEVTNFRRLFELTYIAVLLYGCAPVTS
Chain of SNA treated with PNGaseF (sugar chain-removed natural lectin) (Q41358 309-570): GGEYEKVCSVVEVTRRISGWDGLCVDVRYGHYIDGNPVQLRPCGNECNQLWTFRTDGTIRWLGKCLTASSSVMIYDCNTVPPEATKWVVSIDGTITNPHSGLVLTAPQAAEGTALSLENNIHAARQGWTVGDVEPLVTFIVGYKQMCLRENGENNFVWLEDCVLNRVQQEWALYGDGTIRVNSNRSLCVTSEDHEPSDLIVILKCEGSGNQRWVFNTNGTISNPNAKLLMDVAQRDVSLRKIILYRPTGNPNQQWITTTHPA
Chain of SNA (natural lectin, not treated with PNGaseF) (Q41358 29-289): as the sequence (Q41358 29-289) above
Chain of SNA (natural lectin, not treated with PNGaseF) (Q41358 309-570): as the sequence (Q41358 309-570) above

Row | Substance | S/N Ratio
1 | MCA (natural lectin, not treated with PNGaseF) | 3.1
2 | SSA (natural lectin, not treated with PNGaseF) | 1.9
3 | SNA (natural lectin, not treated with PNGaseF) | 1.5
4 | SNA treated with PNGaseF (sugar chain-removed natural lectin) | 6
5 | MCA treated with PNGaseF (sugar chain-removed natural lectin) | 6.5
6 | SSA treated with PNGaseF (sugar chain-removed natural lectin) | 8
